Biological target: HIV-1 Gag polyprotein (p6 region) (HIV-1 (NL4-3))

HIV-1 Vpr L22E (from UniProt P12520 1-96) (natural protein)
% Vpr incorporation into virions relative to WT Vpr (western blot densitometry, Vpr band normalised to p24 CA): 20 % of WT

Reference: paper PMC3174981
